Results taken from patent publication US7915393B2 (Corixa Corporation, priority 2001, dated 2011).

Test system: WT1-specific CTL targets (DC transduced with WT1 or pulsed with WT1 peptides)
Test: CTL by chromium release after WT1 DNA or adenovirus/alphavirus immunization
Type: in vivo, C57/BI6 mice; HLA-A2/Kb transgenic mice
Settings: C57/BI6 mice, 3 x 100 μg, 25:1 E:T ratio
Method: Mice were sacrificed 2-3 weeks after the final immunization and CTL were evaluated by standard Chromium release assay.
Mice were sacrificed 2-3 weeks after the final immunization and CTL were evaluated by standard Chromium release assay. […] Thus, this immunization strategy also effectively elicits WT1-specific CTL in vivo.

B1: WT1 DNA: naked DNA encoding the splice variant of WT1, SEQ ID NO:381 (nucleic acid)
DNA: ATGGGCTCCGACGTTCGTGACCTGAACGCACTGCTGCCGGCAGTTCCGTCCCTGGGTGGTGGTGGTGGTTGCGCACTGCCGGTTAGCGGTGCAGCACAGTGGGCTCCGGTTCTGGACTTCGCACCGCCGGGTGCATCCGCATACGGTTCCCTGGGTGGTCCGGCACCGCCGCCGGCACCGCCGCCGCCGCCGCCGCCGCCGCCGCACTCCTTCATCAAACAGGAACCGAGCTGGGGTGGTGCAGAACCGCACGAAGAACAGTGCCTGAGCGCATTCACCGTTCACTTCTCCGGCCAGTTCACTGGCACAGCCGGAGCCTGTCGCTACGGGCCCTTCGGTCCTCCTCCGCCCAGCCAGGCGTCATCCGGCCAGGCCAGGATGTTTCCTAACGCGCCCTACCTGCCCAGCTGCCTCGAGAGCCAGCCCGCTATTCGCAATCAGGGTTACAGCACGGTCACCTTCGACGGGACGCCCAGCTACGGTCACACGCCCTCGCACCATGCGGCGCAGTTCCCCAACCACTCATTCAAGCATGAGGATCCCATGGGCCAGCAGGGCTCGCTGGGTGAGCAGCAGTACTCGGTGCCGCCCCCGGTCTATGGCTGCCACACCCCCACCGACAGCTGCACCGGCAGCCAGGCTTTGCTGCTGAGGACGCCCTACAGCAGTGACAATTTATACCAAATGACATCCCAGCTTGAATGCATGACCTGGAATCAGATGAACTTAGGAGCCACCTTAAAGGGCCACAGCACAGGGTACGAGAGCGATAACCACACAACGCCCATCCTCTGCGGAGCCCAATACAGAATACACACGCACGGTGTCTTCAGAGGCATTCAGGATGTGCGACGTGTGCCTGGAGTAGCCCCGACTCTTGTACGGTCGGCATCTGAGACCAGTGAGAAACGCCCCTTCATGTGTGCTTACCCAGGCTGCAATAAGAGATATTTTAAGCTGTCCCACTTACAGATGCACAGCAGGAAGCACACTGGTGAGAAACCATACCAGTGTGACTTCAAGGACTGTGAACGAAGGTTTTTTCGTTCAGACCAGCTCAAAAGACACCAAAGGAGACATACAGGTGTGAAACCATTCCAGTGTAAAACTTGTCAGCGAAAGTTCTCCCGGTCCGACCACCTGAAGACCCACACCAGGACTCATACAGGTGAAAAGCCCTTCAGCTGTCGGTGGCCAAGTTGTCAGAAAAAGTTTGCCCGGTCAGATGAATTAGTCCGCCATCACAACATGCATCAGAGAAACATGACCAAACTCCAGCTGGCGCTTTGAG
B1 was tested, and the “lysis (WT1-specific cytotoxic T cell response)” value was 40%.
